# Data taken from publication PMC2808226 (Molecular Biology of the Cell, 2010).
# B1: caveolin-3-c-myc (natural protein)
# chain: MMTEEHTDLEARIIKDIHCKEIDLVNRDPKNINEDIVKVDFEDVIAEPEGTYSFDGVWKVSFTTFTVSKYWCYRLLSTLLGVPLALLWGFLFACISFCHIWAVVPCIKSYLIEIQCISHIYSLCIRTFCNPLFAALGQVCSNIKVVLRREG
# Legend:
# [1] = molecular target: nicotinic acetylcholine receptor (mouse (endogenous in gastrocnemius muscle and in myotubes)) (UniProt P04756); assay: pull-down
# [2] = molecular target: nAChR-α-c-myc (UniProt P04756 21-457); assay: co-IP
# nAChR-α-c-myc, sequence (P04756 21-457): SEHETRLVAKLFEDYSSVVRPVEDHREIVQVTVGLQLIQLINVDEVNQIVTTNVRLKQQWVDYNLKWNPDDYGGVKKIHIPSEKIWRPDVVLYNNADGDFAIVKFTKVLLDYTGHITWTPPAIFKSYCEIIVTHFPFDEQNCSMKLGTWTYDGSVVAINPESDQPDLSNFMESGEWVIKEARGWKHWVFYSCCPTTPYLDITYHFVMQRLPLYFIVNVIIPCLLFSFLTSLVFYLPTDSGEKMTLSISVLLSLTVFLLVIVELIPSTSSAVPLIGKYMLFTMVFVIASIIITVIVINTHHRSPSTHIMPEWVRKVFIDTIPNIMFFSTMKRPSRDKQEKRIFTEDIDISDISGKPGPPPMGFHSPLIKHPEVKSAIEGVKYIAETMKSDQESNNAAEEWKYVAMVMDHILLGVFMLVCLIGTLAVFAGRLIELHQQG
# nicotinic acetylcholine receptor (mouse (endogenous in gastrocnemius muscle and in myotubes)), sequence (P04756 whole entry, looked up): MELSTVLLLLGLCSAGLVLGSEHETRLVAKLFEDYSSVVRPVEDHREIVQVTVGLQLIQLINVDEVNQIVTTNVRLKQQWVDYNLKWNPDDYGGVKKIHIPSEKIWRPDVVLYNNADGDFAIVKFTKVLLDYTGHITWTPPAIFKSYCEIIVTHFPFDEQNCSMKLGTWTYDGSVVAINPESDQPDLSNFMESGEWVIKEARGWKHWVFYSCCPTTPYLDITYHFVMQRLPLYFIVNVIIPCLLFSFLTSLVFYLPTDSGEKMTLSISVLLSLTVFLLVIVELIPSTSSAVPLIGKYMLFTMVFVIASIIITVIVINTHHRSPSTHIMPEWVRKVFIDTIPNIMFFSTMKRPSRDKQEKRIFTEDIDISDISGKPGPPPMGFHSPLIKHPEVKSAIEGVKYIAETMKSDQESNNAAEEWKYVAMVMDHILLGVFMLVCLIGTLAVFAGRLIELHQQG
Molecule,"percent of caveolin-3 that interacts with the nAChR, after agrin treatment [1] [%]","percent of caveolin-3 that interacts with the nAChR, resting conditions [1] [%]",stoichiometry N [2] [caveolin-3 per nAChR]
caveolin-3 (from UniProt P51637 1-151) (natural protein),5,,
B1,,0.25,~14
